Values of other authors, collected in paper PMC7496540.

What was measured:
[1] = target: λ exonuclease (Escherichia phage lambda) (UniProt P03697)
[2] = target: SSB C-terminal peptide C-terminal nine residues (Escherichia coli) (UniProt P0AGE0)
Chain of UniProt P0AGE0 (P0AGE0 whole entry, looked up): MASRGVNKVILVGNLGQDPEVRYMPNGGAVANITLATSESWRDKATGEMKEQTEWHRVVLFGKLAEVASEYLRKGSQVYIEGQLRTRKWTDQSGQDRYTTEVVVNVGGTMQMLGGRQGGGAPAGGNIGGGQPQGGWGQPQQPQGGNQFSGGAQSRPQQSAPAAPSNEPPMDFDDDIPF

Chain of UniProt P03697 (P03697 whole entry): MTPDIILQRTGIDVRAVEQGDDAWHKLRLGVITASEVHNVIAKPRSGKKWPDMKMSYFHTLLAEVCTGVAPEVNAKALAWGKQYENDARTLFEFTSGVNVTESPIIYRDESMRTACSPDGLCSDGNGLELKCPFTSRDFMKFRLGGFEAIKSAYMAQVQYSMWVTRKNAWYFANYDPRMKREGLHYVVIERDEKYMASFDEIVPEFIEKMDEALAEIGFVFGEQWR

For Redβ (from UniProt P03698), the Kd [1] is given as 7.9 µM and the Kd [2] is given as 10 µM.
